Results on two molecules are retold here after paper PMC11605055.

The series deals with T1, HIM-8 ZF1-2-CTD (Caenorhabditis elegans (N2), UniProt O18068 223-361).
T1 sequence: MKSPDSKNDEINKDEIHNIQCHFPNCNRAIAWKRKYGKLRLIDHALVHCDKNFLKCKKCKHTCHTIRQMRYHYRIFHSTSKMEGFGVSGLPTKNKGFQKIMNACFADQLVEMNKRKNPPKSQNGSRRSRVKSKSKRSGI
The series can be described thus: ITC.

B1: X chromosome PC motif 12 bp (dsDNA)
DNA 1: TTGGTCAGTGCA
DNA 2: TGCACTGACCAA
In the case of B1, the Kd stood at 0.43 ± 0.01 µM.

B2: X PC motif TG to CA (dsDNA)
DNA 1: TTGGTCAGCACA
DNA 2: TGTGCTGACCAA
For B2, the binding result is on record as “no binding”.

For orientation: Kd means the concentration at which binding is half-saturated. A lower Kd goes with higher affinity.
